According to US20030040042A1, “Recombinant fibroblast growth factors” (published 2003):

T1: FGF receptor on bovine adrenal cortex capillary endothelial (ACE) cells (bovine, UniProt P12820)
T1 sequence: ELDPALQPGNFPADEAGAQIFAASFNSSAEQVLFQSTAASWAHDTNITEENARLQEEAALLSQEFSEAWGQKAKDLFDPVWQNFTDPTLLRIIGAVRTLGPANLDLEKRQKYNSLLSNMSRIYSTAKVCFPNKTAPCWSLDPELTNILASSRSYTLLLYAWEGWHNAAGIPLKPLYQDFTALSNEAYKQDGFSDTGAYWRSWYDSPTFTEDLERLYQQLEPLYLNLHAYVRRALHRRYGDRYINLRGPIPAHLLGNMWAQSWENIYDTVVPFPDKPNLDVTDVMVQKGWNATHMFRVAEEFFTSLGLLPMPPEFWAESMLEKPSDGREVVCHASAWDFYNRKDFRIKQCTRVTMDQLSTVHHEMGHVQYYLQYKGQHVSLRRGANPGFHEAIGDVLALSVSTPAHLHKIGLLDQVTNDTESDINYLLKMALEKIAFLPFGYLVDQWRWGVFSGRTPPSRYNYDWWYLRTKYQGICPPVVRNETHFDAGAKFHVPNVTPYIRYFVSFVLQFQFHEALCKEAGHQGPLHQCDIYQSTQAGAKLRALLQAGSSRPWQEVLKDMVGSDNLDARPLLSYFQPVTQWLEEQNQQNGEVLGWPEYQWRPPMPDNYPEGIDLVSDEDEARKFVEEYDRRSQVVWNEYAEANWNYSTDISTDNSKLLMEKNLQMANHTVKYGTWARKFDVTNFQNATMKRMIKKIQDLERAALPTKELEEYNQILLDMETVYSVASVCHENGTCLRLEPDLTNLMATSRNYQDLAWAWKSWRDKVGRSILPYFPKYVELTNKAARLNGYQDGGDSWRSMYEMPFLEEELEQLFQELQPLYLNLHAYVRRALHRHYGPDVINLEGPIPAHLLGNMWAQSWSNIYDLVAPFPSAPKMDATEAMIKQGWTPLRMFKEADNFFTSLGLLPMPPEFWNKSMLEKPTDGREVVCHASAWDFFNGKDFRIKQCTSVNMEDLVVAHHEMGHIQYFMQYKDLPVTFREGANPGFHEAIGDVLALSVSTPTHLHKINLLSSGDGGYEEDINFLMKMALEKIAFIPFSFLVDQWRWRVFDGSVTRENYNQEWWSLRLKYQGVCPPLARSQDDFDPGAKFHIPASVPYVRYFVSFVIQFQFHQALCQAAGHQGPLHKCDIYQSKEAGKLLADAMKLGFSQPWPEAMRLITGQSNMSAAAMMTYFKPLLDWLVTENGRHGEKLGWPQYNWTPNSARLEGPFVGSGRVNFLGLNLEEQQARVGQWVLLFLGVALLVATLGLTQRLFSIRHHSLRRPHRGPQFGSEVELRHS


What was measured:
[1] = molecular target: FGF receptor on Balb/c 3T3 cells
[2] = molecular target: FGF receptor on Balb/c 3T3 cells; remark: listed apart in the source
[3] = molecular target: FGF receptor on bovine adrenal cortex capillary endothelial (ACE) cells (bovine) (UniProt P12820)
[4] = molecular target: FGF receptor on Balb/c 3T3 cells; experiment: competition with [125I]-bFGF on Balb/c 3T3 cells
[5] = molecular target: FGF receptor on Balb/c 3T3 cells; experiment: competition with [125I]-bFGF on Balb/c 3T3 cells, no heparin
[6] = molecular target: FGF receptor on Balb/c 3T3 cells; experiment: competition with [125I]-bFGF on Balb/c 3T3 cells, 1 ug/ml heparin
[7] = molecular target: T1, FGF receptor on bovine adrenal cortex …; experiment: cell-based or functional assay

3T3 Mito., 1 ug/ml heparin (ED50 wild type / ED50 analog x 100%) (% of wild type) [1] | 3T3 Mito., no heparin (ED50 wild type / ED50 analog x 100%) (% of wild type) [1] | inhibition of the activity of 1 ng/ml wild type bFGF in the 3T3 mitogenic assay, no heparin [2] | 3T3 Mito. (thymidine uptake), EC50 (ED50) [1] | ACE Mito., 1 ug/ml heparin (ED50 wild type / ED50 analog x 100%) (% of wild type) [3] | ACE Mito., no heparin (ED50 wild type / ED50 analog x 100%) (% of wild type) [3] | ACE cell proliferation, EC50 (ED50) [3] | 3T3 mitogenic assay, ED50 in the absence of bFGF(25-155) [2] | 3T3 mitogenic assay, ED50 in the presence of 10 ng/ml bFGF(25-155) [2] | 3T3 mitogenic assay, ED50 in the presence of 100 ng/ml bFGF(25-155) [2] | EC50 [4] | FGF-Rc Comp. (ED50 analog / ED50 wild type FGF) [5] | FGF-Rc Comp. (ED50 analog / ED50 wild type FGF) [6] | ACE Mito., 1 ug/ml heparin (ED50 wild type / ED50 analog x 100%) [7] | ACE Mito., no heparin (ED50 wild type / ED50 analog x 100%) [7] | Molecule
100 | 50 | > 95% |  |  |  |  |  |  |  |  |  |  |  |  | bFGF(25-155) (from UniProt P09038-2) (ligand)
100 | 100 |  | 0.63 ng/mL | 100 | 100 | 0.16 ng/mL | < 1 ng/mL | 10 ng/mL | 100 ng/mL | 10 ng/mL | 1 | 1 |  |  | recombinant human basic FGF (wild type) (from UniProt P09038-2) (ligand)
144 | 65 |  |  |  |  |  |  |  |  |  | 0.45 | 0.5 | 72 % of wild type | 2 % of wild type | bFGF-C34/78/101S (ligand) MAAGSITTLPALPEDGGSGAFPPGHFKDPKRLYSKNGGFFLRIHPDGRVDGVREKSDPHIKLQLQAEERGVVSIKGVSANRYLAMKEDGRLLASKCVTDESFFFERLESNNYNTYRSRKYTSWYVALKRTGQYKLGSKTGPGQKAILFLPMSAKS
